Measured values as given in PMC2994917 (The Journal of neuroscience : the official journal of the …, 2010).

Experiments:
[1] = biological target: NSF S460E mutant (Chinese hamster, UniProt P18708 1-744, S460E); assay: far-Western, overlay or dot blot
[2] = biological target: NSF T461E mutant (Chinese hamster, UniProt P18708 1-744, T461E); assay: far-Western, overlay or dot blot
NSF T461E mutant, sequence (P18708 whole entry T461E): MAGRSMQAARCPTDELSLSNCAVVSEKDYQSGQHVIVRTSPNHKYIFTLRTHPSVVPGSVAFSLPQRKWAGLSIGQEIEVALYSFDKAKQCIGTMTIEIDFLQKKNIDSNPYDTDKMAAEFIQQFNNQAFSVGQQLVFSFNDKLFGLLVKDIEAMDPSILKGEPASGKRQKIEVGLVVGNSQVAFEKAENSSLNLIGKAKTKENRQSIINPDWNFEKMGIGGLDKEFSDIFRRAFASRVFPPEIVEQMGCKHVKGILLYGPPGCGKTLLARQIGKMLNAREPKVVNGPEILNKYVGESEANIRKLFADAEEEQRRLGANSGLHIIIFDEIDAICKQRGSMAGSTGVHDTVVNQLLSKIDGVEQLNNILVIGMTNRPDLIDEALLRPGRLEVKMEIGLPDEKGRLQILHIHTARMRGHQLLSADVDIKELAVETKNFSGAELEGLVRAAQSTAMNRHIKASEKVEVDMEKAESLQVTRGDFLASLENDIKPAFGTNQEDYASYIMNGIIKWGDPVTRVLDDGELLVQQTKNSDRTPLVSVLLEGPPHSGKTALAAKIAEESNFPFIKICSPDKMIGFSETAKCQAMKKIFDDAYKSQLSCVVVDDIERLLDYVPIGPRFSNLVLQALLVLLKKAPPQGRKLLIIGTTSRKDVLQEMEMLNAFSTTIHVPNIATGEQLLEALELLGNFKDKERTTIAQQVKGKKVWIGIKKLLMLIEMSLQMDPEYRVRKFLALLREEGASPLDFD

NSF S460E mutant, sequence (P18708 whole entry S460E): as the sequence (P18708 whole entry T461E) above, with S460E, E461T counted along it

- binding result [1]: binds
- binding result [2]: binds
B1: human recombinant PKCε (Invitrogen) (enzyme, UniProt Q02156 1-737, looked up)
chain: MVVFNGLLKIKICEAVSLKPTAWSLRHAVGPRPQTFLLDPYIALNVDDSRIGQTATKQKTNSPAWHDEFVTDVCNGRKIELAVFHDAPIGYDDFVANCTIQFEELLQNGSRHFEDWIDLEPEGRVYVIIDLSGSSGEAPKDNEERVFRERMRPRKRQGAVRRRVHQVNGHKFMATYLRQPTYCSHCRDFIWGVIGKQGYQCQVCTCVVHKRCHELIITKCAGLKKQETPDQVGSQRFSVNMPHKFGIHNYKVPTFCDHCGSLLWGLLRQGLQCKVCKMNVHRRCETNVAPNCGVDARGIAKVLADLGVTPDKITNSGQRRKKLIAGAESPQPASGSSPSEEDRSKSAPTSPCDQEIKELENNIRKALSFDNRGEEHRAASSPDGQLMSPGENGEVRQGQAKRLGLDEFNFIKVLGKGSFGKVMLAELKGKDEVYAVKVLKKDVILQDDDVDCTMTEKRILALARKHPYLTQLYCCFQTKDRLFFVMEYVNGGDLMFQIQRSRKFDEPRSRFYAAEVTSALMFLHQHGVIYRDLKLDNILLDAEGHCKLADFGMCKEGILNGVTTTTFCGTPDYIAPEILQELEYGPSVDWWALGVLMYEMMAGQPPFEADNEDDLFESILHDDVLYPVWLSKEAVSILKAFMTKNPHKRLGCVASQNGEDAIKQHPFFKEIDWVLLEQKKIKPPFKPRIKTKRDVNNFDQDFTREEPVLTLVDEAIVKQINQEEFKGFSYFGEDLMP
